Reference: patent US20210147558A1 (OSE IMMUNOTHERAPEUTICS, published 2021)

Target: T1, human CMKLR1 (Chemokine-like receptor 1) (human, UniProt Q99788 1-373)
T1 sequence: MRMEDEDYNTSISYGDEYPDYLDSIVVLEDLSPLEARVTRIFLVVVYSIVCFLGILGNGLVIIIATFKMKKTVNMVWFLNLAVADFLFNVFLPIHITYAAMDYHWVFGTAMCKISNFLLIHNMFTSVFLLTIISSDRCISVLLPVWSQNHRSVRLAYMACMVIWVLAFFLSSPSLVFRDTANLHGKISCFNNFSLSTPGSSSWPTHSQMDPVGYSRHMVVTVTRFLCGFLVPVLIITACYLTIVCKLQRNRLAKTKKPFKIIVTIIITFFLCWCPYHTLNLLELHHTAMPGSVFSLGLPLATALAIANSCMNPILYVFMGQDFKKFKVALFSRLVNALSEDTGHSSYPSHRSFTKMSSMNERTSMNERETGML
Assay: cell-based or functional assay

B1: anti-CMKLR1 antibody clone 2G1 (antibody, V domains shown)
VH: EVQLVASGGGLVQPGGSLKLSCAASGFTFSSYGMSWVRQTPDRRLELVATINRYGGSTYYPDSVKGRFTISRDNAKNTLYLQMSSLKSEDTAMYYCPRLIYYGNEGDSWGQGTTLTVSS
VL: QIVLTQSPAIMSASPGEKVTMTCSASSSVSFMHWYQQKSGTSPKRWIYDTTKLTSGVPARFSGSGSGTFYSLTISSMEAEDAATYYCQQWNSKPPLTFGPGTKLELKR
- IC50 (read off the curve) of the partial decrease (about one fifth); 2G1 with chemerin 6 nM (circles), beta-arrestin recruitment, CHO-K1 CMKLR1 cells: ~10 nM
- IC50 (read off the curve) of the partial decrease (about one third); 2G1 with chemerin 2 nM (diamonds), beta-arrestin recruitment, CHO-K1 CMKLR1 cells: ~20 nM
